According to patent US20260008817A1, “CYCLIC PEPTIDE OR SALT THEREOF, AND USES THEREOF” (FUJIFILM Corporation, priority 2023, published 2026):

Target: T1, FGFR3 Protein, Human, Recombinant (ECD, His Tag) (Homo sapiens, UniProt P22607)
T1 construct: FGFR3 Protein, Human, Recombinant (ECD, His Tag); His tag; purchased Sino Biological 16044-H08H
T1 sequence (P22607 23-375 limits assumed): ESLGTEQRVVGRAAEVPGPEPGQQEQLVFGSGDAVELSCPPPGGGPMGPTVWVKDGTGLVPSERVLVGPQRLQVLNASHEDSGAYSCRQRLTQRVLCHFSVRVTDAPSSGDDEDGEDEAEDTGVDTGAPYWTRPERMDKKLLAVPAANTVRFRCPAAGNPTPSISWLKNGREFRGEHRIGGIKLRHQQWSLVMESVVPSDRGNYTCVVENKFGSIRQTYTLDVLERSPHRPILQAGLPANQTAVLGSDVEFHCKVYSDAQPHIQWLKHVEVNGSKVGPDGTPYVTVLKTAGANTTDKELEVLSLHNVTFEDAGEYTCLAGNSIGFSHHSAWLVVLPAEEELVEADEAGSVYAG
Assay: SPR FGFR versatility, FGFR3 on immobilized cyclic peptide
Type: binding
Settings: 1 μmol/L FGFR, 25° C.
Protocol: The binding of the cyclic peptide to various types of FGFRs was evaluated using a surface plasmon resonance (SPR) method.
The binding affinity of the chemically synthesized cyclic peptide to FGFR was evaluated by the following procedure.
A CM5 sensor chip (Cytiva, 29149603) was set in Biacore-T200 (manufactured by Cytiva) which is a surface plasmon resonance device, and an HBS-EP buffer (Cytiva, BR100826) was added as a running buffer at a flow rate of 10 μL/min to equilibrate the flow channel. Next, 70 μL of a mixed aqueous solution of 0.2 mol/L 1-(3-dimethylaminopropyl)-3-ethylcarbodiimide (EDC) and 0.05 mol/L N-hydroxysuccinimide (NHS) was added to activate the sensor chip. Then, a cyclic peptide prepared to 2 mg/mL in HBS-EP buffer was added thereto to perform immobilization at about 200 RU. […]
After various FGFRs (FGFR1 Protein, Human, Recombinant (His Tag) (Sino Biological, 10616-H08H), FGFR3 Protein, Human, Recombinant (ECD, His Tag) (Sino Biological, 16044-H08H), FGFR4 Protein, Human, Recombinant (His Tag) (Sino Biological, 10538-H08H)) diluted with HBS-EP to 1 μmol/L at 25° C. was added to each flow channel of the cyclic peptide-immobilized sensor chip prepared above, for 10 minutes, HBS-EP was allowed to flow as a running buffer for 30 minutes, and the binding of various FGFRs to the cyclic peptide was measured. […]

335 (ACVWTFDRHAQEISQALHKVKKK; not fully specified; Description of Artificial Sequence: Cyclic peptide) [compound 335]
Evaluation result of binding affinity to FGFR3: B (The binding amount is 0.01 molecules of FGFR/one molecule of the cyclic peptide or more and less than 0.05 molecules of FGFR/one molecule of the cyclic peptide.)
